Here are results for one molecule from US20260125472A1 (HEFEI TG IMMUNOPHARMA, published 2026).

The target of one assay is T1, CD3E&D protein (UniProt P04234 22-105).
T1 construct: Purchased from Acro; also called CD3 E&D antigens; CD3E&D antigen protein
As to the kind of experiment: ELISA, coated CD3E&D protein, OD450. From the text:
In this example, the binding properties of the CD3×Trop2 and CD3×PDL1 bispecific antibody (the production method and the amino acid sequences of the heavy and light chains were shown in Example 1) were detected by using ELISA. The CD3E&D, Trop2, or PDL1 protein was coated onto 96-well plates by inventors, and the strength of the signal after the addition of the antibody was used to determine the binding properties of the antibody and the corresponding protein.
(1) CD3E&D protein (purchased from Acro) was diluted to 2 μg/ml with PBS buffer, added to a 96-well plate at a volume of 100 μL/well, and placed at 4° C. overnight. The PBS buffer in the 96-well plate was aspirated, and the plate was washed 6 times with PBST (pH 7.2 PBS containing 0.1% Tween 20) buffer. Then, 200 μL/well PBS/10% BSA was added and incubated at 37° C. for 2 h for blocking. The blocking solution was removed, and the plate was washed 6 times with PBST. […] The absorbance was read at 450 nm using a microplate reader.
On the technique in general: An ELISA detects its analyte on a solid surface through an enzyme-linked reagent.

The target in another assay is T2, CD3 on CD8 T cells (Homo sapiens (Human), UniProt P07766 23-207).
T2 construct: Native CD3 complex on CD8 T cells among PBMCs; also called T cells (PBMCs gated with anti-human CD8 antibody)
As to the kind of experiment: flow cytometry, CD8 T cells in PBMCs, binding ratio % [panel A].

T2 sequence (P07766 23-207 limits assumed): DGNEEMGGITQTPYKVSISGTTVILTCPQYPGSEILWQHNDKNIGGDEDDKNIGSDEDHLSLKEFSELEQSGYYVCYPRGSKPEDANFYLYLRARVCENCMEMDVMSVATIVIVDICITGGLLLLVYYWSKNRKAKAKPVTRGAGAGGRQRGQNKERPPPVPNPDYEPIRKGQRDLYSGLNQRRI
T1 sequence (chain, as listed by the source limits assumed, chain 1 of 2): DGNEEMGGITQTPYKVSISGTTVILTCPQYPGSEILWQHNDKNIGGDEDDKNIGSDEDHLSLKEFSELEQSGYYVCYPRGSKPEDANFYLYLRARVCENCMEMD
T1 sequence (P04234 22-105 limits assumed, chain 2 of 2): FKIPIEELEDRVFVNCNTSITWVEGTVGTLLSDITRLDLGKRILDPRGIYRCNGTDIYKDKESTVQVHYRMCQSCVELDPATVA

B1: Cross311×Trop2 (bispecific antibody)
scFv: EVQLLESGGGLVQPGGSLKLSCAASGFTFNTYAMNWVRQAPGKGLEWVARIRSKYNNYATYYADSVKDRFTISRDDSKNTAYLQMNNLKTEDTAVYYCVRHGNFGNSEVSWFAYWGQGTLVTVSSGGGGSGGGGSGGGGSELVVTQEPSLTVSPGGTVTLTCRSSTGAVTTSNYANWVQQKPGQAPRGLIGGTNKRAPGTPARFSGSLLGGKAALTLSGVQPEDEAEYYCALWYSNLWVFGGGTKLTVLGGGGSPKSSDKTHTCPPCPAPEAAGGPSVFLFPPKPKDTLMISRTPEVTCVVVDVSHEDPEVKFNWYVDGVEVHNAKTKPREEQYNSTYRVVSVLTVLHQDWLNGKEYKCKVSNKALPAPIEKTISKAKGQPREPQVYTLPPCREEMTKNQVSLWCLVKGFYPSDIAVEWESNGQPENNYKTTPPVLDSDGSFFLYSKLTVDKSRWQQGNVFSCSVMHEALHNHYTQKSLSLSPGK
heavy: QVQLQQSGSELKKPGASVKVSCKASGYTFTNYGMNWVKQAPGQGLKWMGWINTYTGEPTYTDDFKGRFAFSLDTSVSTAYLQISSLKADDTAVYFCARGGFGSSYWYFDVWGQGSLVTVSSASTKGPSVFPLAPSSKSTSGGTAALGCLVKDYFPEPVTVSWNSGALTSGVHTFPAVLQSSGLYSLSSVVTVPSSSLGTQTYICNVNHKPSNTKVDKKVEPKSSDKTHTCPPCPAPEAAGGPSVFLFPPKPKDTLMISRTPEVTCVVVDVSHEDPEVKFNWYVDGVEVHNAKTKPREEQYNSTYRVVSVLTVLHQDWLNGKEYKCKVSNKALPAPIEKTISKAKGQPREPQVCTLPPSREEMTKNQVSLSCAVKGFYPSDIAVEWESNGQPENNYKTTPPVLDSDGSFFLVSKLTVDKSRWQQGNVFSCSVMHEALHNHYTQKSLSLSPGK
light: DIQLTQSPSSLSASVGDRVSITCKASQDVSIAVAWYQQKPGKAPKLLIYSASYRYTGVPDRFSGSGSGTDFTLTISSLQPEDFAVYYCQQHYITPLTFGAGTKVEIKRTVAAPSVFIFPPSDEQLKSGTASVVCLLNNFYPREAKVQWKVDNALQSGNSQESVTEQDSKDSTYSLSSTLTLSKADYEKHKVYACEVTHQGLSSPVTKSFNRGEC
As for B1, the figures for the “EC50 (read off the curve)” value in the assay with CD3E&D protein and with CD3 on CD8 T cells were around 0.04 µg/mL and around 0.7 µg/mL, respectively.
